# Reference: patent US5567602A, “Recombinant production of chymase” (Arris Pharmaceutical Corporation, priority 1992, dated 1996)
# Read-outs that look alike come from different tables or passages of the source.
# T1: recombinant human chymase (Homo sapiens, UniProt P23946)
# T1 construct: made in house; host or cells: Escherichia coli (XL1-Blue)
# T1 sequence (P23946 22-247): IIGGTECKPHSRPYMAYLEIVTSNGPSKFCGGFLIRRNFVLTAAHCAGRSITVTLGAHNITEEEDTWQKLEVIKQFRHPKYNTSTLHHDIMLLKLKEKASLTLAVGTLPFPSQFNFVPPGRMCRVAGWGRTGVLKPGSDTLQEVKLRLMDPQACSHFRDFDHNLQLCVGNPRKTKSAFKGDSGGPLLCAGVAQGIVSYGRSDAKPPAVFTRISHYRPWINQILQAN
# B1: MBP-chymase: catalytic domain of human mast cell chymase fused to the maltose binding protein of Escherichia coli, wild type chymase amino acid sequence (protein)
# chain: IEGRIIGGTECKPHSRPYMAYLEIVTSNGPSKFCGGFLIRRNFVLTAAHCAGRSITVTLGAHNITEEEDTWQKLEVIKQFRHPKYNTSTLHHDIMLLKLKEKASLTLAVGTLPFPSQFNFVPPGRMCRVAGWGRTGVLKPGSDTLQEVKLRLMDPQACSHFRDFDHNLQLCVGNPRKTKSAFKGDSGGPLLCAGVAQGIVSYGRSDAKPPAVFTRISHYRPWINQILQAN
# B2: SBTI: soybean trypsin inhibitor (protein)
# chain: DFVLDNEGNPLENGGTYYILSDITAFGGIRAAPTGNERCPLTVVQSRNELDKGIGTIISSPYRIRFIAEGHPLSLKFDSFAVIMLCVGIPTEWSVVEDLPEGPAVKIGENKDAMDGWFRLERVSDDEFNNYKLVFCPQQAEDDKCGDIGISIDHDDGTRRLVVSKNKPLVVQFQKLDKESL
# B3: Chymase: serine protease with chymotrypsin-like substrate specificity of mast cells (protein)
# chain: T1 sequence (P23946 22-247)
# B4: recombinant human chymase: enzymatically active, recombinant human chymase released by Factor Xa cleavage of the refolded fusion protein (protein)
# chain: T1 sequence (P23946 22-247)
# B5: Free chymase: Free chymase, released by Factor Xa cleavage of the fusion protein (protein)
# chain: T1 sequence (P23946 22-247)
# What was measured:
# [1] = target: T1, recombinant human chymase; test: Inhibitor profile of recombinant human chymase (residual activity, chromogenic substrate); format: biochemical; conditions: none = 100
# Experimental: (§1) Assays for chymase activity were carried out in cuvettes, which contained, in 1 ml, 80 μg of the chromogenic substrate succinyl-L-PheProPhe-p-nitroanilide in 30 mM Tris-HCl, pH 8.0, 1M NaCl. Samples were placed in a spectrophotometer and set to zero absorbance. The assay was initiated by mixing in approximately 10 μg of protein and absorbance at 405 nm was monitored as a function of time. Chymase activity was determined from the specific activity (110 absorbance units/mg/min at 37° C.; Caughey et al., 1988, Bioch. Biophys. Acta 952:142-149) and the slope of the absorbance vs. time plot.
# (§2) MBP-chymase fusion protein, recovered in the insoluble fraction from cell extracts, was resuspended in lysis buffer containing β-mercaptoethanol and 8M urea. After sonication to completely resuspend the pellet, the sample was dialyzed against 10 mM sodium phosphate buffer, pH 7.2 overnight. Insoluble material was removed by centrifugation and the fusion protein was then purified by amylose affinity chromatography as above. The fusion protein was eluted from the resin with maltose and dialyzed against 20 mM Tris-HCl, pH 8.0, 100 mM NaCl. The protein was then exchanged into reducing buffer #1 (0.1M Tris-HCl, pH 8.7, 1 mM EDTA, 6M guanidine-HCl, 0.15M NaCl, 0.3 M reduced glutathione) and incubated at room temperature for 2 hours. The sample was diluted 100-fold into oxidizing buffer #2 (0.1 Tris-HCl, pH 8.0, 1 mM EDTA, 0.15M NaCl, 0.3 mM oxidized glutathione), stirred for 2-48 hr at room temperature, and concentrated 100-fold to 285 μg/ml by ultrafiltration using an Amicon stirred flow cell. Factor Xa cleavage reactions were carried out at room temperature overnight. Ten μl samples were periodically removed and assayed for chymase activity in the presence or absence of various proteinase inhibitors. Several control experiments were also performed as described below.
# [2] = tested on: human heart chymase; conditions: none = 100, cited from earlier work
# [3] = Assay for chymase proteolytic activity on chromogenic substrate; format: biochemical; conditions: for proteolytic activity on chromogenic substrate: not refolded, chymase substrate succinyl-L-PheProPhe-p-nitroanilide; for activity released by Factor Xa: refolded fusion protein
# Experimental: as §1, §2
# [4] = tested on: Chymase; conditions: general statement, no concentration; cited from earlier work
# [5] = at 37° C.; Caughey et al., 1988; cited from earlier work
# [6] = tested on: airway submucosal gland cells; conditions: cited from earlier work
molecule,measurement,setting,value
"CC(=O)N[C@@H](CC(C)C)C(=O)N[C@@H](CC(C)C)C(=O)N[C@H](C=O)CCCNC(=N)N [LEU, leupeptin]",remaining activity at 10 µM,"[1]; 10 μM inhibitor, read-out: % Residual Activity, Recombinant Enzyme",100%
same,"% Residual Activity, Heart Chymase",[2]; 10 μM inhibitor,106%
"O=S(=O)(F)Cc1ccccc1 [PMSF, phenylmethylsulfonyl fluoride]","% Residual Activity, Recombinant Enzyme",[1]; 1 mM inhibitor,0%
same,"% Residual Activity, Heart Chymase",[2]; 1 mM inhibitor,0%
"Cc1ccc(S(=O)(=O)N[C@@H](Cc2ccccc2)C(=O)CCl)cc1 [TPCK, ptosyl-L-phenylalanine chloromethyl ketone]",remaining activity at 100 µM,"[1]; 100 μM inhibitor, read-out: % Residual Activity, Recombinant Enzyme",0%
same,"% Residual Activity, Heart Chymase",[2]; 1 mM inhibitor,30%
B1,enzymatic activity on the chymase substrate (control experiments),"[3]; Factor Xa alone, or fusion protein in the absence of Factor Xa",did not result in detectable enzymatic activity
same,proteolytic activity on chromogenic substrate,[3],no detectable proteolytic activity
B2,"% Residual Activity, Recombinant Enzyme",[1]; 25 μM inhibitor,0%
same,"% Residual Activity, Heart Chymase",[2]; 1 μM inhibitor,0%
same,"% Residual Activity, Heart Chymase",[2]; 100 μM inhibitor,0%
same,inhibition of chymase,[4],inhibited
B3,specific activity,[5],110 absorbance units/mg/min
same,secretagogue activity,[6],extremely potent secretagogue
B4,enzymatic activity of released recombinant human chymase,"[3]; refolded fusion protein cleaved by Factor Xa, hydrolysis of the chymase substrate",enzymatically active
same,activity released by Factor Xa,[3]; at 2 hours,2.7 µg/mL
same,activity released by Factor Xa,"[3]; at 5 hours, remained at this level for up to 24 hours",4.6 µg/mL
B5,proteolytic activity on chromogenic substrate,[3],inactive as a protease
